Publication PMC3645478

Target: I-E^k (mouse MHC class II molecule, α- and β-subunits, six-histidine-tagged) (mouse)
Assay: peptide exchange induced by ultraviolet irradiation

Q: “MCC peptide labeled with indocarbocyanine (Cy3)” was tested. Which percent of Lys99ANP–I-E^k converted into Cy3-labeled MCC–I-E^k did it give?
A: 30%
